Legend:
[1] = biological target: T1, human ROR-1 endogenously expressed on JeKo-1 and MDA-MB-468 cells (human, UniProt Q01973 30-937); assay: cell-based or functional assay
[2] = biological target: T1, human ROR-1 endogenously expressed on …; assay: cell-based or functional assay; remark: listed apart in the source
[3] = biological target: T1, human ROR-1 endogenously expressed on …; assay: flow cytometry (cellular binning): titration of the antibody on MDA-MB-468 cells, fluorescently labeled secondary antibody, % Top MFI
Description: (§1) Next, the anti-ROR-1 antibodies were fluorescently labeled with a secondary antibody.
(§2) In Step 2, a fluorescently labeled secondary antibody recognizing the novel antibodies was incubated with the samples.

Mouse ROR1 - His = biological target: T2, Mouse ROR1 - His (Mouse, UniProt Q9Z139 30-403, limits assumed); assay: SPR, purified Mouse ROR1-His
T2 construct: Purified His-tagged mouse ROR1 protein used in SPR; not shown: His tag
T2 sequence (Q9Z139 30-403 limits assumed): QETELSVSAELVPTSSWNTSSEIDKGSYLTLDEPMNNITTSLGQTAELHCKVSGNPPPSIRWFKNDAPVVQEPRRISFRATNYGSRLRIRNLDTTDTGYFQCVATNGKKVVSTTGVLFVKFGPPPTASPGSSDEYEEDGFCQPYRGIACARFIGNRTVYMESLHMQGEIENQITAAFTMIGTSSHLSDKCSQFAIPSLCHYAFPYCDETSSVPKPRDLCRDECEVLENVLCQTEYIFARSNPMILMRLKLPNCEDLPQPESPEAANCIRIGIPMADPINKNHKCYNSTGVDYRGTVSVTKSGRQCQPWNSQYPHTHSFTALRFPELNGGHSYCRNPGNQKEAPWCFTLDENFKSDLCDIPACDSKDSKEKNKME

[4] = biological target: T1, human ROR-1 endogenously expressed on …; assay: flow cytometry: titration of the antibody on ROR-1 positive JeKo-1 cells, secondary antibody staining, Net MFI
Description: Cells were washed, stained with secondary antibody and cell binding saturation was detected by flow cytometry and reported as mean fluorescent intensity (MFI).
A cell binding saturation assay was developed to evaluate how well the anti-ROR-1 antibodies developed in Example 22 bound to endogenously expressed extracellular ROR-1 protein on cell lines. […] Cells were then washed and subjected to secondary antibody staining and detection by flow cytometry. Mean fluorescence (MFI) was determined by analysis on cytometer software. […] (See FIGS. 27A-27B).

[5] = biological target: T1, human ROR-1 endogenously expressed on …; assay: flow cytometry competition (cellular binning) on MDA-MB-468 cells: cells coated with titrated ATX-P-885, then a saturating dose of the labeled competitor Dy650-UC961, whose signal is plotted in % Top MFI
Description: as §1, §2

Hu/Cy/Rh ROR1 - His [6] = biological target: T3, Hu/Cy/Rh ROR1 - His (Human/Cyno/Rhesus, UniProt Q01973 30-403, limits assumed); assay: SPR, purified Hu/Cy/Rh ROR1-His
T3 construct: Purified His-tagged ROR1 protein used in SPR; also called Human/Cyno/Rhesus ROR-1; not shown: His tag

[7] = biological target: T1, human ROR-1 endogenously expressed on …; assay: flow cytometry (cellular binning): titration of the antibody on MDA-MB-468 cells, fluorescently labeled secondary antibody, % Top MFI; remark: listed apart in the source
Description: as §1, §2

Hu/Cy/Rh ROR1 - His [8] = biological target: T3, Hu/Cy/Rh ROR1 - His; assay: SPR (Carterra), cell 'Kinetics (KD)' in the head and in the left column of the binning table, antigen Hu/Cy/Rh ROR1-His; no unit stands on the sheet, M is taken from Table 3, where the same KD values of the other four antibodies stand under KD (M)
[9] = biological target: T1, human ROR-1 endogenously expressed on …; assay: flow cytometry: titration of the antibody on ROR-1 positive JeKo-1 cells, secondary antibody staining, Net MFI; remark: listed apart in the source
[10] = biological target: T1, human ROR-1 endogenously expressed on …; assay: flow cytometry (cellular binning): titration of the antibody on MDA-MB-468 cells, fluorescently labeled secondary antibody, % Top MFI; remark: listed apart in the source
Description: as §1, §2

[11] = biological target: T1, human ROR-1 endogenously expressed on …; assay: flow cytometry competition (cellular binning) on MDA-MB-468 cells: cells coated with titrated ATX-P-875, then a saturating dose of the labeled competitor 4A5-PE, whose signal is plotted in % Top MFI
Description: as §1, §2

Binder	ROR-1 receptor internalization on JeKo-1 and MDA-MB-468 cells (reduction of surface antibody over 4 hours, flow cytometry) [1] [%]	JeKo-1 (%) cellular internalization [2] [%]	MDA-MB-468(%) cellular internalization [2] [%]	EC50 (read off the curve) [3] [nM]	Kd (Mouse ROR1 - His) [nM]	koff (Mouse ROR1 - His) [s⁻¹]	kon (Mouse ROR1 - His) [M⁻¹ s⁻¹]	EC50 (read off the curve) [4] [nM]	IC50 (read off the curve) [5] [nM]	Kd (Hu/Cy/Rh ROR1 - His [6]) [nM]	koff (Hu/Cy/Rh ROR1 - His [6]) [s⁻¹]	kon (Hu/Cy/Rh ROR1 - His [6]) [M⁻¹ s⁻¹]	EC50 (read off the curve) [7] [nM]	Kd (Hu/Cy/Rh ROR1 - His [8]) [nM]	EC50 (read off the curve) [9] [nM]	EC50 (read off the curve) [10] [nM]	IC50 (read off the curve) [11] [nM]
4A5 (antibody, V domains shown) VH: EVKLVESGGGLVKPGGSLKLSCAASGFTFSSYAMSWVRQIPEKRLEWVASISRGGTTYYPDSVKGRFTISRDNVRNILYLQMSSLRSEDTAMYYCGRYDYDGYYAMDYWGQGTSVTVSS VL: DIKMTQSPSSMYASLGERVTITCKASPDINSYLSWFQQKPGKSPKTLIYRANRLVDGVPSRFSGGGSGQDYSLTINSLEYEDMGIYYCLQYDEFPYTFGGGTKLEMK	–	–	–	–	–	–	–	–	–	–	–	–	–	2.81	–	–	–
ATX-P-875 (antibody, V domains shown) VH: not shown VL: DIQMTQSPSSLSASVGDRVTITCRASQSISSYLNWYQQKPGKAPKLLIYAASSLQSGVPSRFSGSGSGTDFTLTISSLQPEDFATYYCQQYDNLPITFGQGTRLEIKR	≥ 75	75	89	–	–	–	–	–	–	–	–	–	~0.9	–	–	~0.5	~0.7

The remaining lines, values ahead:

ROR-1 receptor internalization on JeKo-1 and MDA-MB-468 cells (reduction of surface antibody over 4 hours, flow cytometry) [1] [%]	JeKo-1 (%) cellular internalization [2] [%]	MDA-MB-468(%) cellular internalization [2] [%]	EC50 (read off the curve) [3] [nM]	Kd (Mouse ROR1 - His) [nM]	koff (Mouse ROR1 - His) [s⁻¹]	kon (Mouse ROR1 - His) [M⁻¹ s⁻¹]	EC50 (read off the curve) [4] [nM]	IC50 (read off the curve) [5] [nM]	Kd (Hu/Cy/Rh ROR1 - His [6]) [nM]	koff (Hu/Cy/Rh ROR1 - His [6]) [s⁻¹]	kon (Hu/Cy/Rh ROR1 - His [6]) [M⁻¹ s⁻¹]	EC50 (read off the curve) [7] [nM]	Kd (Hu/Cy/Rh ROR1 - His [8]) [nM]	EC50 (read off the curve) [9] [nM]	EC50 (read off the curve) [10] [nM]	IC50 (read off the curve) [11] [nM]	Binder
≥ 75	75	89	~2	45.3	0.00132	29200	~0.3	~3	10.9	0.00295	270000	~3	–	–	–	–	ATX-P-885 (antibody, V domains shown) VH: QVQLQQWGAGLLKPSETLSLTCAVYGGSFSGYYWSWIRQPPGKGLEWIGEINHSGSTNYNPSLKSRVTISVDTSKNQFSLKLSSVTAADTAVYYCAREGVYEDYWGQGTLVTVSS VL: EIVLTQSPATLSLSPGERATLSCRASQSVSNYLAWYQQKPGQAPRLLIYDAYNRATGIPARFSGSGSGTDFTLTISSLEPEDFAVYYCQQRSNWPLTFGQGTRLEIKR
–	75	80	–	–	–	–	~0.1	–	4.69	0.00591	1.26e+06	–	–	~0.02	–	–	UC-961 (ATX-P-453) (antibody, V domains shown) VH: QVQLQESGPGLVKPSQTLSLTCTVSGYAFTAYNIHWVRQAPGQGLEWMGSFDPYDGGSSYNQKFKDRLTISKDTSKNQVVLTMTNMDPVDTATYYCARGWYYFDYWGHGTLVTVSS VL: DIVMTQTPLSLPVTPGEPASISCRASKSISKYLAWYQQKPGQAPRLLIYSGSTLQSGIPPRFSGSGYGTDFTLTINNIESEDAAYYFCQQHDESPYTFGEGTKVEIK
